Assays:
[1] = target: T1, F-actin from chicken breast muscle (chicken (endogenous in breast muscle), UniProt P68139 1-377); experiment: co-sedimentation
[2] = target: T1, F-actin from chicken breast muscle; experiment: cell-based or functional assay

mass ratio of 110K-CM to actin at apparent saturation [1]: ~20 110K-CM:actin by mass
actin activation of the MgATPase activity of 110K-CM, F-actin 0.1 to 60 uM, 35C [2]: 2.5 to 3.5 fold
B1: 110-kD protein-calmodulin complex of the intestinal microvillus (complex)
chain 1: MEATTSLLDAAAVGDLVMLDPLSEESLLRTLQERFSRGEIYTYIGEVVISVNPYKPLPIYTPEKVEEYHNCNFFAVKPHIYAIADDAYRSLRDRDRDQCILITGESGAGKTEASKLVMSYVAAVSSKGEEVDKVKEQLLQSNPVLEAFGNAKTIRNDNSSRFGKYMDVEFDFKGDPLGGVISNYLLEKSRIVRHVKGERNFHIFYQLLAGGSAQLLQQLKLRPDCSHYGYLNHEKSVLPGMDDAANFRAMQDAMAIIGFAPAEVTALLEVTAVVLKLGNVKLSSCFQASGMEASSITEPRELQEISQLIGLDPSTLEQALCSRTVKVRDESVLTALSVSQGYYGRDALAKNIYSRLFDWLVNRINTSIQVKPGKQRKVMGVLDIYGFEIFQDNGFEQFIINYCNEKLQQIFILMTLKEEQEEYVREGIQWTPVEFFDNSIICDLIENSKVGILAMLDEECLRPGTVNEDTFITKLNQIFASHKRYESKETLNAKHVTDVSLPLRCFRIHHYAGKVTYNVTGFIEKNNDLLFRDLSQAMWAARHTLLRSLFPEGDPQRPSLKLPPTTGSQFKASVATLMKNLYSKNPNYIRCIKPNDTKTAMLFTPDLVLAQVRYLGLMENVRVRRAGYAFRQLYQPFLERYKMLSRKTWPRWTGGDREGAEVLLAELKFPPEELAYGHTKIFIRSPRTLFDLEKRRQQRVAELATLIQKMFRGWCCRKRYQLMRKSQILISAWFRGHMQRNRYKQMKRSVLLLQAYARGWKTRRMYRRYFRSDACTRLSNFIYRRMVQKYLMGLQKNLPPMAVLDRTWPPAPYKFLSDANQELKSIFYRWKCKKYREQLTPQQRAMLQAKLCASELFKDKKALYAQSLQQPFRGEYLGLTQNRKYQKLQAVAKDKLVMAEAVQKVNRANGKTVPRLLLLTTEHLVLADPKAAQPKMVLSLCDIQGASVSRFSDGLLALHLKETSTAGGKGDLLLVSPHLIELVTRLHQTLMDATAQALPLSIADQFSTRFPKGDVAVTVVESAKGGGDVPVCKKRGSHKMEILVH
chain 2: […]

Reference: publication PMC2114910 (The Journal of Cell Biology, 1987)
